According to patent US8501695B2, “Tissue kallikrein for the treatment of diseases associated with amyloid protein” (DiaMedica, Inc., priority 2007, dated 2013):
Several values for one entry are separate records, joined by “and”; a condition that tells them apart may be missing. Equal entries are not always repeated.

Experiment: Pharmacokinetic study of intranasal tissue kallikrein (125I-KLK1 tissue concentrations by gamma counting)
Assay type: in vivo
Conditions: rat, 30 min. end point, individual animal, listed as kallikrien
Procedure: The purpose of this study was to quantify the amount of tissue kallikrein (KLK1) reaching the central nervous system and peripheral tissues after intranasal administration to anesthetized rats. At 30 min after KLK1 administration, animals were transcardially perfused with ice-cold saline followed by paraformaldehyde fixative and tissues were dissected. The amount of radiolabeled KLK1 in each tissue sample was quantified by gamma counting and tissue concentrations were calculated using tissue weight and gamma counting of standards of the dosing solutions
Adult male Sprague Dawley rats (n=10, mean 335.4 g±4.57 g SE) were used for this study. Animals were group housed in the Regions Hospital Animal Care Facility with free access to food and water. Animals were kept on a 12 h light cycle. All experimental procedures were approved by the Animal Care and Use Committee at Regions Hospital under IACUC protocol number 08-022.
Tissue kallikrein was sent to Perkin-Elmer for ^125I-labelling (Quote NEX-084, lot C1541583). Non-labeled KLK1 from Sigma (cat#K3627-1KU, lot 018K1441) was also used. Non-labeled KLK1 was dissolved in 1×PBS (10×PBS, Sigma, cat #P5493, lot 027K8405 diluted in sterile water). The average dose was 48.1 μL, 75 μCi, and 2.6 mg.
• a. Prior to anesthesia, each rat was weighed. • b. An anesthesia cocktail was prepared and full, half, and quarter anesthesia doses were calculated according to the animal's weight with a full dose containing 30 mg/kg ketamine, 6 mg/kg xylazine, and 1 mg/kg acepromazine. • c. A 1-cc syringe fitted with a 25 G or 27 G, ½ inch needle was assembled and a full dose was drawn into the syringe for injection. • d. Rats were restrained in a towel as follows. Rats were placed ventral side down in the middle of a hand towel. The towel was then wrapped around the head and shoulders to restrain. Wrapped animals remained ventral side down while the left hind leg was located. • e. The left hind leg was drawn to the side and the needle was inserted just beneath the skin (subcutaneous) above the thigh. After ensuring that the needle was placed subcutaneously (and not intramuscularly), full doses were injected. Rats were placed in holding cages and the injection time noted. Animals should be under within 5 min. • f. Anesthesia was monitored throughout the procedures by assessing reflexes using pinching of the hind paw or tail. If a reflex was present, a half or quarter dose booster was administered as necessary. • g. During drug administration, animals received a half dose booster roughly 20-25 min after initial dose. Intranasal Delivery of ^125I-KLK1 • a. Anesthetized rats were placed on their backs on a heating pad in a metal surgical tray. The heating pad was connected to a thermostat and was automatically regulated to maintain a 37° C. temperature based on continuous measurement from a rectal probe. • b. A 2″×2″ gauze pad was rolled tightly into a pillow, taped together, and under the neck to maintain a correct neck position horizontal with the counter. • c. A lead impregnated shield was placed between the surgical tray and the experimenter for protection against radiation. The dose solution, pipette, pipette tips, and waste receptacle were arranged behind the shield for easy access. • d. A 6 μL drop was loaded into the pipette behind the shield. • e. A cotton swab covered in parafilm was used to occlude one naris completely (the flat part of the swab was pushed gently against the naris to prevent airflow), while the 6 μL drop was expelled slowly from the pipette (held at a 45° angle from the rat's midline), forming a drop on the pipette tip. The drop was lowered onto the open naris to be inhaled. • f. After two minutes, the alternate naris was occluded and a 6 μL drop was administered in the same fashion. • g. A drop was administered as described above every two minutes to alternating nares until a total of 8 drops was delivered (4 to each naris) over 14 min. • h. […]

B1: tissue kallikrein: serine protease that cleaves kininogen into kallidin; polypeptide SEQ ID NO:1 (Sus scrofa kallikrein 1), KLK1 from Sigma (protein, listed as Sus scrofa)
chain: MWSLVMRLALSLAGTGAAPPIQSRIIGGRECEKDSHPWQVAIYHYSSFQCGGVLVDPKWVLTAAHCKNDNYQVWLGRHNLFENEVTAQFFGVTADFPHPGFNLSLLKNHTKADGKDYSHDLMLLRLQSPAKITDAVKVLELPTQEPELGSTCQASGWGSIEPGPDDFEFPDEIQCVELTLLQNTFCADAHPDKVTESMLCAGYLPGGKDTCMGDSGGPLICNGMWQGITSWGHTPCGSANKPSIYTKLIFYLDWINDTITENP
modifications: 125I label in one form
concentration in Lung (R, top lobe): 48.6 nM and 48.7 nM and 46.8 nM and 18.2 nM and 37.2 nM and 30.1 nM and 27.9 nM and 24.4 nM and 64.3 nM and 25.5 nM
concentration in Medulla: 12.3 nM and 9.9 nM and 13.99 nM and 17.4 nM and 11.1 nM and 21.0 nM and 21.1 nM and 10.6 nM and 20.5 nM and 10.8 nM
concentration in Midbrain: 12.3 nM and 9.5 nM and 13.1 nM and 15.3 nM and 10.0 nM and 15.9 nM and 9.9 nM (2×) and 16.4 nM
concentration in Muscle (R, deltoid): 24.2 nM (2×) and 17.7 nM and 17.5 nM and 15.8 nM and 12.4 nM and 16.5 nM and 23.1 nM and 29.3 nM and 33.2 nM
concentration in Occipital Cortex: 9.8 nM (2×) and 9.6 nM and 12.7 nM and 12.3 nM and 14.1 nM and 14.0 nM and 13.6 nM and 19.2 nM
concentration in Olfactory Bulbs: 44.4 nM and 39.9 nM and 128.1 nM and 168.8 nM and 66.2 nM and 220.9 nM and 123.5 nM and 74.5 nM and 157.1 nM and 48.2 nM
concentration in Olfactory Epithelium: 17,707.4 nM and 21,919.4 nM and 21,270.9 nM and 41,836.8 nM and 17,083.5 nM and 31,983.9 nM and 38,661.3 nM and 13,736.3 nM and 17,247.4 nM and 26,179.4 nM
concentration in Optic Chiasm: 20.7 nM and 14.4 nM and 41.3 nM and 34.7 nM and 51.4 nM and 8.4 nM and 38.2 nM and 27.0 nM and 28.7 nM
concentration in Parietal Cortex: 7.5 nM and 8.5 nM and 10.5 nM and 9.0 nM and 10.1 nM and 18.5 nM and 14.3 nM and 12.8 nM and 17.6 nM and 12.3 nM
concentration in Pituitary: 86.9 nM and 44.0 nM and 58.9 nM and 51.8 nM and 79.3 nM and 59.7 nM and 44.3 nM and 67.9 nM and 48.1 nM
concentration in Pons: 12.4 nM and 10.0 nM and 13.9 nM and 16.2 nM and 10.1 nM and 22.0 nM and 18.6 nM and 10.6 nM and 20.4 nM and 10.2 nM
concentration in Posterior Trigeminal Nerve: 82.3 nM and 37.8 nM and 60.5 nM and 48.7 nM and 47.7 nM and 50.2 nM and 35.9 nM and 70.5 nM and 32.6 nM
concentration in Renal artery (L): 56.2 nM and 67.3 nM and 103.1 nM and 52.8 nM and 55.8 nM and 26.1 nM and 43.0 nM and 78.9 nM and 66.9 nM and 31.2 nM
concentration in Respiratory Epithelium: 78,502.7 nM and 75,759.2 nM and 26,815.1 nM and 82,292.8 nM and 126,759.8 nM and 34,402.4 nM and 71,775.8 nM and 107,890.6 nM and 91,206.0 nM and 64,295.5 nM
concentration in Septal Nucleus: 9.5 nM and 8.2 nM and 13.3 nM and 13.6 nM and 10.2 nM and 19.4 nM and 12.9 nM and 9.8 nM and 12.0 nM
concentration in Spinal Dura: 23.1 nM and 26.3 nM and 36.1 nM and 21.4 nM and 16.9 nM and 26.6 nM and 26.2 nM and 39.7 nM and 20.1 nM and 29.5 nM
concentration in Spleen (tip): 29.0 nM and 81.5 nM and 35.1 nM and 87.5 nM and 91.1 nM and 82.9 nM and 75.4 nM and 89.8 nM and 73.8 nM and 80.0 nM
concentration in Striatum: 8.2 nM and 5.5 nM and 8.5 nM and 6.7 nM and 7.23 nM and 14.9 nM and 10.4 nM and 9.5 nM and 15.1 nM and 11.9 nM
concentration in Superficial Nodes (2): 58.8 nM and 39.9 nM and 42.2 nM and 60.1 nM and 66.8 nM and 69.0 nM and 94.2 nM and 68.9 nM and 68.0 nM
concentration in Temporal Cortex: 9.9 nM and 7.8 nM and 11.65 nM and 10.4 nM and 14.2 nM and 16.6 nM and 15.6 nM and 12.5 nM and 13.7 nM and 11.5 nM
concentration in Thalamus: 7.9 nM and 6.7 nM and 12.2 nM (2×) and 10.5 nM and 8.1 nM and 15.4 nM and 14.0 nM and 7.2 nM and 9.1 nM
concentration in Thoracic Spinal Cord: 5.5 nM and 5.1 nM and 6.7 nM and 4.5 nM and 4.2 nM and 6.5 nM and 4.7 nM and 5.7 nM and 4.1 nM and 5.0 nM
concentration in Thyroid: 1,730.9 nM and 2,077.1 nM and 2,106.5 nM and 1,369.2 nM and 2,644.1 nM and 2,380.4 nM and 1,219.8 nM and 2,016.7 nM and 2,148.4 nM and 2,013.3 nM
concentration in Trachea: 58.5 nM and 116.8 nM and 64.5 nM and 93.6 nM and 44.8 nM and 59.3 nM and 65.1 nM and 110.6 nM and 86.4 nM
concentration in Upper Cervical Spinal Cord: 16.0 nM and 17.0 nM and 18.18 nM and 31.6 nM and 18.8 nM and 35.1 nM and 37.2 nM and 20.4 nM and 27.0 nM and 12.8 nM
concentration in Urine: 249.2 nM and 79.5 nM and 190.9 nM and 57.8 nM and 51.1 nM and 65.6 nM and 287.4 nM and 95.8 nM and 139.2 nM and 90.6 nM
concentration in Ventral Dura: 113.7 nM and 71.6 nM and 29.8 nM and 138.3 nM and 165.6 nM and 259.4 nM and 192.6 nM and 150.8 nM and 211.8 nM and 96.1 nM
